From patent US20080267980A1 come the findings set out here.

The target in the assay is C3 ligand for CR2 deposited on CHO cells (human) (UniProt P01024). The assay can be described thus: cell-based or functional assay.

B1: CR2-DAF (protein)
chain: ISCGSPPPILNGRISYYSTPIAVGTVIRYSCSGTFRLIGEKSLLCITKDKVDGTWDKPAPKCEYFNKYSSCPEPIVPGGYKIRGSTPYRHGDSVTFACKTNFSMNGNKSVWCQANNMWGPTRLPTCVSVFPLECPALPMIHNGHHTSENVGSIAPGLSVTYSCESGYLLVGEKIINCLSSGKWSAVPPTCEEARCKSLGRFPNGKVKEPPILRVGVTANFFCDEGYRLQGPPSSRCVIAGQGVAWTKMPVCGGGSGGGGSDCGLPPDVPNAQPALEGRTSFPEDTVITYKCEESFVKIPGEKDSVICLKGSQWSDIEEFCNRSCEVPTRLNSASLKQPYITQNYFPVGTVVEYECRPGYRREPSLSPKLTCLQNLKWSTAVEFCKKKSCPNPGEIRNGQIDVPGGILFGATISFSCNTGYKLFGSTSSFCLISGSSVQWSDPLPECREIYCPAPPQIDNGIIQGERDHYGYRQSVTYACNKGFTMIGEHSIYCTV
In the case of B1, the 50% inhibition of CHO cell lysis is 18 nM.

B2: CR2-CD59 (protein)
chain: ISCGSPPPILNGRISYYSTPIAVGTVIRYSCSGTFRLIGEKSLLCITKDKVDGTWDKPAPKCEYFNKYSSCPEPIVPGGYKIRGSTPYRHGDSVTFACKTNFSMNGNKSVWCQANNMWGPTRLPTCVSVFPLECPALPMIHNGHHTSENVGSIAPGLSVTYSCESGYLLVGEKIINCLSSGKWSAVPPTCEEARCKSLGRFPNGKVKEPPILRVGVTANFFCDEGYRLQGPPSSRCVIAGQGVAWTKMPVCSGGGGSLQCYNCPNPTADCKTAVNCSSDFDACLITKAGLQVYNKCWKFEHCNFNDVTTRLRENELTYYCCKKDLCNFNEQLEN
The molecule B2 came in with a 50% inhibition of CHO cell lysis of 102 nM.
